From PMC3320765 (Biochemistry, 2012)
One block for each binder: values may come before it.

Biological target: HIRA(1–405), untagged (HIRA WD repeats) (human, UniProt P54198 1-405)
Experiment: AUC

Chain of HIRA(1–405), untagged (HIRA WD repeats) (P54198 1-405): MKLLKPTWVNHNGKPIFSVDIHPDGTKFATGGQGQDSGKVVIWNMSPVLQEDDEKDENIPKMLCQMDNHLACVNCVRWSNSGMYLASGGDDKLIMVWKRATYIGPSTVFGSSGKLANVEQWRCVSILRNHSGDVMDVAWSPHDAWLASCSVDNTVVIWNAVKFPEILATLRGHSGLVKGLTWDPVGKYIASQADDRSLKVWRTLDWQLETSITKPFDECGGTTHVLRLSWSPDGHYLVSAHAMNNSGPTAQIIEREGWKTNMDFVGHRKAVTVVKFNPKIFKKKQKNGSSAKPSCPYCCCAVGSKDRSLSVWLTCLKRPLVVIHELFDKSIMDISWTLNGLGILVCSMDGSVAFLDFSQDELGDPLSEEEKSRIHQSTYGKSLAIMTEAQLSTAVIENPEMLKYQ

Kd: 6.5 nM
B1: 6His-UBN1(41–119) (domain or fragment, human, UniProt Q9NPG3 41-119, looked up)
chain: AAAAVRITLTLFEPDHKRCPEFFYPELVKNIRGKVKGLQPGDKKKDLSDPFNDEEKERHKVEALARKFEEKYGGKKRRK

Kd: 13.3 nM
B2: 6His-UBN1(41–175) (domain or fragment, human, UniProt Q9NPG3 41-175, looked up)
chain: AAAAVRITLTLFEPDHKRCPEFFYPELVKNIRGKVKGLQPGDKKKDLSDPFNDEEKERHKVEALARKFEEKYGGKKRRKDRIQDLIDMGYGYDESDSFIDNSEAYDELVPASLTTKYGGFYINSGTLQFRQASES
